This experiment has as its target recombinant human angiopoietin-2 (human) (UniProt O15123). Put plainly: direct ELISA, rhAng2 coated on microplate wells, detection by HRP-anti-His tag antibody, OD450. For orientation: An ELISA detects its analyte on a solid surface through an enzyme-linked reagent.

EC50 (read off the curve) data for one molecule are collected here from patent US20140088019A1.

Bridges are numbered along the chain shown (N, C = ends). Where no end group is shown, it is not given here.

One may read the EC50 (read off the curve) as the concentration at which the effect is half-maximal.

UniProt O15123, sequence (O15123 19-496 limits assumed): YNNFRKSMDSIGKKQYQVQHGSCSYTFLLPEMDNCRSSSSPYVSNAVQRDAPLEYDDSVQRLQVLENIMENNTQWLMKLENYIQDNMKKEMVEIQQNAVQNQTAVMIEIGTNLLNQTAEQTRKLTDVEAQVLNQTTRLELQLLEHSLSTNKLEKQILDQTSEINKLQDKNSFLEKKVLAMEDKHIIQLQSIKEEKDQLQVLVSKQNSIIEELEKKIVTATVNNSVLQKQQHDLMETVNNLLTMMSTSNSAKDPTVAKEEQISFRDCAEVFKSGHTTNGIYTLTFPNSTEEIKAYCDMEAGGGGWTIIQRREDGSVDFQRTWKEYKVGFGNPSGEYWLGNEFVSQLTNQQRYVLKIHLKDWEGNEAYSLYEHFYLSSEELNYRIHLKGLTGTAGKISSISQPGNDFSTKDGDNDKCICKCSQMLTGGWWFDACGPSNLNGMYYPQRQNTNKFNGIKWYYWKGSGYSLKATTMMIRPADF

B1: Construct 12: ELP-MRD fusion protein with a constrained rhAng2-targeting peptide (ANGd) sandwiched between ELP repeat modules (designed binder, not shown: small tags and cut ends)
chain: LWDDCYSFPNPPHCYNSP
modifications: disulfide 5-14 (inferred); not fully specified (N-terminus, C-terminus); also: peptide sandwiched between ELP repeat modules, ELP composition not given here
With B1, the EC50 (read off the curve) was 8 nM.
